From the domain aggregation screens of Martell et al. (2025) come the findings set out here.
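Note: 20 min heating vs room temperature control held 20 min.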

A short description of this series: soluble fraction after stress (log2 fold change); higher = more stays soluble; pooled small domains, quantitative proteomics. The following applies: stress: 75 degC.
Regarding “HMNSNQESFENWLSANSWYNKDRAMRVFADSLGQELRNSGVSFEKALTQISAEVRKEFSHKFQ”, the “soluble fraction (log2)” value was -0.491.
“HMNSNSLSFSKFMQEVEAGRVIEVQIKGNDIQGELSDGSKFKTYSPNYPNLVDKLSENKVSIVATPL”: the “soluble fraction (log2)” value is -0.0878.
In the case of “HMNSNTIIFSQFLSEVDNGRVTQVQIQGNNIKGTLSNGKDFITYAPNDPNLIEKLTSKGVSISASPID”, the “soluble fraction (log2)” value is 0.0526.
For “HMNSNTIIINDIMTKIGKEVKNFTEIYSIILKALAEHGEEYVRTNTEYALKNFTGNFDIFLEQLLLK”, the “soluble fraction (log2)” value was -0.207.
The value for “HMNSRAERKEAAKEAIRNLLREGMTFEELTGPWLEKRFAEEPFNRGARSWQMLISEIKEEPEFQHL” was -0.014; that for “HMNSRQPEEEALFELLAKNPYSDEQLEEIRIAIGSGISYKDVLVIADIKNTAKQMKKLRLKFTKDTG” was -0.561; that for “HMNSTEQQTERFLATLTSLGGNAGNQRLQEALGWQGSTYQRIKQHLLDEGRIRTGRGRGGSVALSEATAT” was 0.0863.
The value for “HMNSTGVYQRPDGFWEYRFTLSINGKKLPRRKSTDLMGNKLKTKREAIKAREEAIIALRTEKTI” was -1.42; that for “HMNSTVKVPNVVGMSVPQAKALLEQNHLLVQGIREVSTDKAPAGIVINQLPYSDAEVKEERHIYLTVSKGK” was 0.968.
On to “HMNSVKSPMPGTILGLKVSVGDTVKVGDELLVLESMKMENMINSPIDGTVSKILISEGDSVQHGQELII”, for which the “soluble fraction (log2)” value was 0.238.
To “HMNSVSARRSAAITAISTGRIHSQEDLVQALKKAGYPVTQATASRDIEEIGAVRIRNQKGEMVYAIS” belongs 0.208.
The value for “HMNTEEITYSRFQQMLEAGEISQVSIESNRILILPSEETGIEKVLYTGIINDPGLVERLNSAGVEFRAPIE” was -0.31; that for “HMNTEFDVPDVVGKTLDEAEFVLKGSNLKRGLIMPVDDPSKAPGTIVRQNPEAGAGNKIRVGDVVDLWVVG” was 0.271.
The value for “HMNTELSPKVWDVVQEFILYRKEIKAPMTEHAVKLLIGQLQKLSSDPDEQIEILRQSIVNGWKGIFSLK” was -1.2.
Regarding “HMNTGTTISYSDFRDRVASGTVKEVQISDDRITGVLKNDETFNTVPVGNDSGLTKLLDDNGVTYSGTP”, the “soluble fraction (log2)” value was found to be 0.299.
With “HMNTIFSVNGPVVKVKDTKDFSMMEMVYVGEKKLIGEVIGITESFTTIQVYEVTTGLKVGEPVYTTGAPM”, the “soluble fraction (log2)” value is -0.361.
To “HMNTIIHPIRLAYVDSGSIKSMAEQAEIDVKILTSEANSQIFWAIGDEKQIDRLYNLISQVDIIQNK” belongs -1.86.
Turning to “HMNTKHVFIIEQDDEKKRLDIFLVEKLQDSRSFLKKGIVEGWVKVNESVVKPNYKLKQKDQITVIIPP”, the “soluble fraction (log2)” value is -1.47.
To “HMNTNDFTIGTRVRTTKKGNGSSDGTSNTARSGIEGTITRIIPEAKYPYLVSTTVPMGWYKKDALEK” belongs 0.00349; to “HMNTPLYLKIREQIFDALRSGRWAANDPLPSETKLASEFEVSQGTIRKAIDDLVAQNILYRHQGRGTFIRR”, -1.21.
The value for “HMNTSSVTVHYQDEAGKSLADTVTLTGKVGETYSSEQKKITGYNFKEVRGNPKGQFTTEAQTVTYVYTQAA” was 0.211; that for “HMNTWVEIFRAEDQGQIRDASLVLLAVKVAHRVDMNSSSAPWSLMVPAQDQQRAHHELTTYWQENAH” was -2.03.
The value for “HMNVAELIEGHEAEIAEVLKEFSLLYLMRLADELGEMTKSSSGNGPFQVLKGLVYEEIARRG” was -1.65.
Take “HMNVAVPTPADKRKVRVMKADINAKLRVNDANGAYAVYEELKEWVTLKGFTEWNDDLSKLSETMGSMKRKV”: the “soluble fraction (log2)” value was -0.601.
In the case of “HMNVDALVGQRGRVTQTFDPGLRLGRVAVGGDDWRAETTTDQPLREGDLVEVVSVESNTLIVRPIA”, the “soluble fraction (log2)” value came to 0.0567.
The value for “HMNVDSLIGQTARVIVDINNNDSIGYALVGGQEWTARAENDNDIIPKDTLVEIVGVSGVKLIVRRKE” was 0.0563; that for “HMNVDSLVGSEARVTAEIDNRKETGTAMVNGQEWTARAESDEEIYPVGTIVEIRKIQGVKLIVSTH” was -0.394.
The value for “HMNVEATAETLLALLKKNGGSLPFGDKSDPEAIQSQLKMSKKTFKKAAGTLFKKKLVRIEDHGIFL” was -2.02; that for “HMNVEGEVVVPNVIGRTMKDVAVILSDLGLRMEAEGTGVAKSSQPQHGTSVKRGTVVQVRFEPLSVN” was 0.648.
The value for “HMNVEKLREMYPEGTKIILQEMQGESRMAKGLKGTVTHVDDAGQIHMKWENGSSLVLNVEVDTFKKIE” was 0.0771; that for “HMNVEVDSIGDDDFLVKVSAGTSTEHRVTLTDAYWEQIWSSSLPKKEIISLSFAFLLEREPNSSIMRT” was 0.161; that for “HMNVNALIGQEGIVIKEINSGSNKIGQVKISGDTWSAVTTNDFTNAIPVGSNVKILKIDGVNLIVEPVY” was -0.255.
“HMNVNVSFTQLRHKAEHAIQAKNWSEARNLLTLATLMRPTHRNVARRLKAVEQRNRLFRRLLLILTHRKV”: the “soluble fraction (log2)” value was -0.429.
The value for “HMNVPFGFDEVNGKLVKNEEEQAIISEIKSLKNKGLSLRKIAEALNGRGIATKNGKAWTAVQIQRIA” was -0.318; that for “HMNVPLYIMIESAVEQRLLDGTYQVGKMIPTEFELMDEFSVSRETVRKAINLLVQRGKLEKKRGIGTFVAS” was -3.28; that for “HMNVSDIENKLNEMLSPLEKKVMVLYLEGKSYVEIGELLGRHTKSVDNALQRVKRKLEIYLKNRK” was -2.62.
With “HMNVTIGESIKNVINHYGTPIYSYNPNNQEKYYEFHTNKGVLVVTAIGKKNTGYVTRVSMTY”, the “soluble fraction (log2)” value was -1.04.
Take “HMNVVDTGTDANYRVKISAVNLNMRLGPSTSYKSKGYITPGNYTIIKTSGDWGKVKETGYWVALKYTSKIN”: the “soluble fraction (log2)” value is -3.16.
“HMNVVINNELVSLMVEAMKDGVSSKSIQEEFEGYKISGKTITKKVLTAHVNKALEVFADMQE”: the “soluble fraction (log2)” value is -0.582.
Consider “HMNYDPEEKITQIRTMLEIHSRIEFNEIITPATRRGEIIIIFLALLHMIKRGYIVVRQHRLFGDITIFARD”, for which the “soluble fraction (log2)” value worked out at 0.0974.
The value for “HMNYKDQISRYFQQAFHIYPKYQTMKNEEGNFTSKIFKDDKMIIEGVGKSKKKAEQDVSRKALIHFNVL” was -0.376; that for “HMNYKNAIGQVGSVYVPIPPNREGLGQIEVKVQSRVSTVRAVSDHSERLENRVAVRVIELVDDRTLLVEKL” was -1.15.
Regarding “HMNYTSEDIKLASELFFHLLNNRILPANDVLASQYYDNNEIREILENMAEEGGLRIFGTRENLHLVSNGE”, the “soluble fraction (log2)” value was 0.00512.
The value for “HMNYYDLLGIPKSATKQQIRKAYRTKAKEFHPDVNGPFNSHMHFLLLKQAYETLMDANMRHVYDMALIS” was -2.4.
The value for “HMPADHYEVLGIARDADAAEVKRAYRRLARESHPDANHGDSGAEVRFKAVSAAYEVLSDPERRARYDRFGH” was 0.0495.
To “HMPANVELLRTFTNKTGTKIKARIVAVSDNKVKLIRDDSKKFIVPIDSLSEEDQKYLKDWIANEVGEQ” belongs -0.16.
As for “HMPARTANEEAIRKYLLNHDSITRKETQALLKTGQSAAGRILKEMVENGWLARIGNGRSTGYELR”, the “soluble fraction (log2)” value is -0.222.
For “HMPATIEGIRLYLSSGLIKGVGEEMASRIVKAFGTDTIRVLDEEPERLLKVRGVGKKSLDRIRTSWAEH”, the “soluble fraction (log2)” value was -0.366.
Regarding “HMPATPDATVQAVQQRLNELGYDVGSADGLMGRGTRSAIIAFQQDRGLAATGVADQALLLQLQP”, the “soluble fraction (log2)” value is 0.105.
For “HMPAWKINQELQATVIATKANQTRLRIEGQTFETQTAIALKPGQSLLIKVVSLEPQISFALI”, the “soluble fraction (log2)” value was -2.45.
Consider “HMPDFLAELAARMERDAVTEAQIRQVVAQKGHYPEEVSPAQYHPDFFRQWLFPHWEKIVDVIRSSPEYTP”, for which the “soluble fraction (log2)” value is -0.126.
“HMPDGTATATASVNVRSGASTLSPVLGVLRVGESIGVTGQANGGWVPVNYNGRAGYVYAAYLSFD”: the “soluble fraction (log2)” value is -0.915.
Turning to “HMPDKIDSAAQGILDKLIRNDGFMAVTDKSPPEAIYKLFGVSKKVFKQAIGSLYKNRLITIEDAGLRIIPQ”, the “soluble fraction (log2)” value was -0.481.
To “HMPDLKIGKDHRLAEYIETKIAEDGYSPGAVLGEIKAKGLEFETEISKPTLYSYIDKGIFLTITNKELPV” belongs 0.25; to “HMPDLQKAIDDLLQVVDKRLNTSFESILNEVNSEKEAVAFFLALLEAVRWGFVKASQSDEGIKIEK”, 0.211; to “HMPDLSAEERNIVEALQKSNDLQVNLIAVKTGMDMGTLSATLFGLEMKGLVKLMAGGTYHLI”, -1.11.
The value for “HMPDLSEDEEKIVSLLRDNNDLNVNIIVMRTQLPSATVTSSLFSLELKGVVRMYAGGMYHLM” was -3.73; that for “HMPDLSYVDEVLNRYKGHKGTLITVLQQVQAHKGYLEKEALERVARSMGVPTARIYGVVTFYAQFR” was 0.138; that for “HMPDPVHAAYLRLAVLLTEQAIGPQVTEQQIRDRFALTRRQTSDLMGRLIREGIAEKRAGYGWNINTELTA” was -1.16.
To “HMPDVAIMNVSVEPEKKVVRLQVKAISLEALLDFSTRLEAIPARVELQNHTPSKELSQKWAVNATLIVIY” belongs 0.482; to “HMPDYYAILEVERTADAKTIKAAYRKLALAYHPDRNPGDQAAEERFKQINEAYAVLSDPEKRARYDRYGSV”, -0.131.
Take “HMPEFKDMLKFFRMREHLSQSELAEKLGISASTVSMYEVGRRQPDFETEEKIADFFNTDLNTLRG”: the “soluble fraction (log2)” value was -0.693.
To “HMPEGTYLEKLAIENNNLQLIGLSREASQLVQLLQDAPQWRKVNLTGVLQADGAASGRDRFTMTAELQ” belongs 0.0999.
The value for “HMPEKNQITHLIRLIDDRDEFVRKRVREQLIKLGEDAIPFLEMAAKTENLEIQRIASEIIQAIIPRQ” was -0.745; that for “HMPELPPHELLRALMVEHDIKQSELPEVGPQPVVSDVLAGKRALNLRQVAALAARFHVPMEVFT” was -0.161.
To “HMPELSITDADIIVAGGRGMGSAENFGLIRELAGLLGAAVGASRVVVDAEWVDQKHLIGQTGK” belongs -0.0455.
In the case of “HMPELTASDEADLKALVGGDQGFEQMANWARSNLGEEEINRFDAVVDSNNKDAIHMAIQAMQARMNA”, the “soluble fraction (log2)” value is -0.107.
As for “HMPELTERELEVLLLTARGLPSSEAARLLFITRRTVAAHLTSIYGKLGARNKTEAVLAALKRGIIMLDQIG”, the “soluble fraction (log2)” value is -3.99.
The value for “HMPESYFEMLQKLLETYALPQEGTIYFSAADLARMPQKFEDVIEQTAQKKGGHLVVSKEPKDMDGGFVLV” was -1.83.
